Measured values from patent US20200054763A1 (DEBIOPHARM INTERNATIONAL S A, published 2020).

Target: T1, human CD37 (human, UniProt P11049 1-281)
T1 sequence: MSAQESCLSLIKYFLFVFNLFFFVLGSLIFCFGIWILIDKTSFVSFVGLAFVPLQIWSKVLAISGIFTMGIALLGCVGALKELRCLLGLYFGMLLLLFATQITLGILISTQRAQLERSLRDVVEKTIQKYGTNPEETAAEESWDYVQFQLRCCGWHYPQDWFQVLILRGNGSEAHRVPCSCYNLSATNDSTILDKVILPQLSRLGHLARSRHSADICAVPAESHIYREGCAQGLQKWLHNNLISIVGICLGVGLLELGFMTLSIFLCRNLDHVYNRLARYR
Assay: cell-based or functional assay

B1: IMGN529 (naratuximab emtansine) (antibody, V domains shown)
VH: QVQVQESGPGLVAPSQTLSITCTVSGFSLTTSGVSWVRQPPGKGLEWLGVIWGDGSTNYHPSLKSRLSIKKDHSKSQVFLKLNSLTAADTATYYCAKGGYSLAHWGQGTLVTVSS
VL: DIQMTQSPSSLSVSVGERVTITCRASENIRSNLAWYQQKPGKSPKLLVNVATNLADGVPSRFSGSGSGTDYSLKINSLQPEDFGTYYCQHYWGTTWTFGQGTKLEIKR
modifications: maytansinoid DM1 linked through the SMCC linker; attachment residues and chain not stated
B1 was tested, and the “median IC50, cell proliferation (MTT assay, 72 hours), B cell lymphoma cell lines (n=46)” value was 0.45 nM, the “median IC50, cell proliferation (MTT assay, 72 hours), T cell lymphoma cell lines (n=8)” value was 22.5 nM and the “median IC50, cell proliferation (MTT assay, 72 hours), fifty-four lymphoma cell lines” value was 0.79 nM.
